± gives the uncertainty stated by the source.
Experiment: self-splicing fitness, log relative to wild type (ln ratio); higher = more splicing; Tetrahymena group I intron in knt gene, E. coli kanamycin selection, DiMSum; sequences stand for … in CUCUCU…GGAGGGAAAAGUUAUCAGGCAUGCACCUGGUAGCUAGUCUUUAAACCAAUAGAUUGCAUCGGUUUAAAAGGCAAGACCGUCAAAUUGCGGGAAAGGGGUCAACAGCCGUUCAGUACCAAGUCUCAGGGGAAACUUUGAGAUGGCCUUGCAAAGGGUAUGGUAAUAAGCUGACGGACAUGGUCCUAACCACGCAGCCAAGUCCUAAGUCAACAGAUCUUCUGUUGAUAUGGAUGCAGUUCACAGACUAAAUGUCGGUCGGGGAAGAUGUAUUCUUCUCAUAAGAUAUAGUCGGACCUCUCCUUAAUGGGAGCUAGCGGAUGAAGUGAUGCAACACUGGAGCCGCUGGGAACUAAUUUGUAUGCGAAAGUAUAUUGAUUAGUUUUGGAGUACUCGUGGUCG
Summary of the method: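 Library with all eight P1ex-region intron nucleotides randomised, intron inside the knt kanamycin-resistance gene on pET-22b(+), in E. coli BL21(DE3). Cells grew overnight at 37°C or 30°C on LB agar with or without 25 μg/mL kanamycin (plus 100 μg/mL carbenicillin, 50 μM IPTG, 0.2% rhamnose), in six replicate transformations. Pooled colonies were amplicon-sequenced on Illumina HiSeq 2500. DiMSum fitness is the error-weighted combination of wild-type-normalised replicate fold changes, kanamycin versus none.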

## AGGAAGCAAUAUUACGAGCC
30 °C
  self-splicing fitness (ln): -2.25 ± 0.23
37 °C
  self-splicing fitness (ln): -1.32 ± 0.27

## AGGAAGCAAUAUUACGAGGG
30 °C
  self-splicing fitness (ln): -3.63 ± 0.26
37 °C
  self-splicing fitness (ln): -3.07 ± 0.29

## AGGAAGCAAUAUUACGCAUC
37 °C
  self-splicing fitness (ln): -1.85 ± 0.41

## AGGAAGCAAUAUUACGCCGU
30 °C
  self-splicing fitness (ln): -1.28 ± 0.24
37 °C
  self-splicing fitness (ln): -0.629 ± 0.33

## AGGAAGCAAUAUUACGCCUU
30 °C
  self-splicing fitness (ln): -2.67 ± 0.2
37 °C
  self-splicing fitness (ln): -0.955 ± 0.18

## AGGAAGCAAUAUUACGCGAA
30 °C
  self-splicing fitness (ln): -1.83 ± 0.12
37 °C
  self-splicing fitness (ln): -1.38 ± 0.14

## AGGAAGCAAUAUUACGCUUG
30 °C
  self-splicing fitness (ln): -2.64 ± 0.14
37 °C
  self-splicing fitness (ln): -0.302 ± 0.11

## AGGAAGCAAUAUUACGGGAC
30 °C
  self-splicing fitness (ln): -3.5 ± 0.46
37 °C
  self-splicing fitness (ln): -1.67 ± 0.23

## AGGAAGCAAUAUUACGGGAU
30 °C
  self-splicing fitness (ln): -2.75 ± 0.19
37 °C
  self-splicing fitness (ln): -2.06 ± 0.18

## AGGAAGCAAUAUUACGGGGU
30 °C
  self-splicing fitness (ln): -3.19 ± 0.21
37 °C
  self-splicing fitness (ln): -3.13 ± 0.43

## AGGAAGCAAUAUUACGGUAA
30 °C
  self-splicing fitness (ln): -2.47 ± 0.2
37 °C
  self-splicing fitness (ln): -2.26 ± 0.18

## AGGAAGCAAUAUUACGGUAU
30 °C
  self-splicing fitness (ln): -2.52 ± 0.28
37 °C
  self-splicing fitness (ln): -0.707 ± 0.24

## AGGAAGCAAUAUUACGUAUU
30 °C
  self-splicing fitness (ln): -3.54 ± 0.24
37 °C
  self-splicing fitness (ln): -0.582 ± 0.15

## AGGAAGCAAUAUUACGUCAA
30 °C
  self-splicing fitness (ln): -3.36 ± 0.22
37 °C
  self-splicing fitness (ln): -3.71 ± 0.27

## AGGAAGCAAUAUUACGUUCG
30 °C
  self-splicing fitness (ln): -0.643 ± 0.071
37 °C
  self-splicing fitness (ln): -0.266 ± 0.11

## AGGCAGCAAUAUUACGAAGU
30 °C
  self-splicing fitness (ln): -2.32 ± 0.1
37 °C
  self-splicing fitness (ln): -0.471 ± 0.098

## AGGCAGCAAUAUUACGAAUU
30 °C
  self-splicing fitness (ln): -1.29 ± 0.064
37 °C
  self-splicing fitness (ln): -1.4 ± 0.093

## AGGCAGCAAUAUUACGACUG
30 °C
  self-splicing fitness (ln): -1.99 ± 0.14
37 °C
  self-splicing fitness (ln): -2.18 ± 0.18

## AGGCAGCAAUAUUACGACUU
30 °C
  self-splicing fitness (ln): -0.0645 ± 0.048
37 °C
  self-splicing fitness (ln): 0.187 ± 0.065

## AGGCAGCAAUAUUACGAGAU
30 °C
  self-splicing fitness (ln): -3.01 ± 0.15
37 °C
  self-splicing fitness (ln): -2.26 ± 0.2

## AGGCAGCAAUAUUACGAGCU
30 °C
  self-splicing fitness (ln): -0.501 ± 0.1
37 °C
  self-splicing fitness (ln): -0.299 ± 0.13

## AGGCAGCAAUAUUACGAGGA
30 °C
  self-splicing fitness (ln): -3.31 ± 0.28
37 °C
  self-splicing fitness (ln): -2.55 ± 0.26

## AGGCAGCAAUAUUACGAGUA
30 °C
  self-splicing fitness (ln): -1.94 ± 0.15
37 °C
  self-splicing fitness (ln): -1.65 ± 0.14

## AGGCAGCAAUAUUACGAUGA
30 °C
  self-splicing fitness (ln): -1.23 ± 0.13
37 °C
  self-splicing fitness (ln): 0.113 ± 0.14

## AGGCAGCAAUAUUACGCAGC
30 °C
  self-splicing fitness (ln): -4.21 ± 0.42
37 °C
  self-splicing fitness (ln): -2.84 ± 0.31

## AGGCAGCAAUAUUACGCAGG
30 °C
  self-splicing fitness (ln): -1.39 ± 0.084
37 °C
  self-splicing fitness (ln): -1.17 ± 0.1

## AGGCAGCAAUAUUACGCCAC
30 °C
  self-splicing fitness (ln): -3.45 ± 0.18
37 °C
  self-splicing fitness (ln): -2.48 ± 0.3

## AGGCAGCAAUAUUACGCGAU
30 °C
  self-splicing fitness (ln): -4.3 ± 0.42
37 °C
  self-splicing fitness (ln): -1.93 ± 0.21

## AGGCAGCAAUAUUACGCUCU
30 °C
  self-splicing fitness (ln): -2.31 ± 0.34

## AGGCAGCAAUAUUACGGCUG
30 °C
  self-splicing fitness (ln): -2.3 ± 0.35

## AGGCAGCAAUAUUACGUCAG
30 °C
  self-splicing fitness (ln): -1.92 ± 0.12
37 °C
  self-splicing fitness (ln): -0.461 ± 0.12

## AGGCAGCAAUAUUACGUGCA
30 °C
  self-splicing fitness (ln): -1.01 ± 0.1
37 °C
  self-splicing fitness (ln): -0.142 ± 0.14

## AGGCAGCAAUAUUACGUGCG
30 °C
  self-splicing fitness (ln): -0.971 ± 0.082
37 °C
  self-splicing fitness (ln): -0.24 ± 0.11

## AGGGAGCAAUAUUACGACAA
30 °C
  self-splicing fitness (ln): -3.29 ± 0.29
37 °C
  self-splicing fitness (ln): -3.44 ± 0.42

## AGGGAGCAAUAUUACGAGCA
30 °C
  self-splicing fitness (ln): -3.26 ± 0.25
37 °C
  self-splicing fitness (ln): -2.64 ± 0.21

## AGGGAGCAAUAUUACGAGGU
30 °C
  self-splicing fitness (ln): -2.64 ± 0.17
37 °C
  self-splicing fitness (ln): -3.55 ± 0.31

## AGGGAGCAAUAUUACGAUUC
30 °C
  self-splicing fitness (ln): -3.76 ± 0.35
37 °C
  self-splicing fitness (ln): -2.41 ± 0.29

## AGGGAGCAAUAUUACGCGGU
30 °C
  self-splicing fitness (ln): -3.98 ± 0.21
37 °C
  self-splicing fitness (ln): -3.05 ± 0.24

— the supplement of paper PMC7877785
